Here are results for 48 sequences from the supplement of paper PMC10899765.

What all share (conditions): 20 nM; 72 h
The test system of data set [1] is MCF10A. Briefly: percent viability (nuclei count relative to siNT); higher = more viable cells. The method, then:
(§1)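 After 72 h, cells were fixed and stained with Hoechst and anti-fibrillarin, and nucleoli per nucleus were counted with CellProfiler. Values are plate-adjusted percent effect for the one-nucleolus and 5+ nucleoli phenotypes, normalised to siNT (0%) and to the positive controls siNOL11 or siKIF11 (100%), as the mean of biological triplicates. Percent viability is the nuclei count relative to siNT.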

Data set [2] relates to MCF10A. Briefly: 5+ nucleoli phenotype percent effect (relative to siNT 0% and siKIF11 100%); higher = more cells with five or more nucleoli. The method, then: as §1
The test system of data set [3] is MCF10A. Briefly: one-nucleolus phenotype percent effect (relative to siNT 0% and siNOL11 100%); higher = more cells with one nucleolus (ribosome biogenesis inhibition). The procedure:
as §1

As to UGACCUCUCCGCUCCGCACAG [hsa-miR-6821-3p], the percent viability with MCF10A [1] was determined as 38.9%. For the same sequence, in the data set on MCF10A [2], the “5+ nucleoli phenotype percent effect” value is -22.7%. Moreover, the “one-nucleolus phenotype percent effect” value in the data set on MCF10A [3] came out at 7.28%.
On the same counts, the results for UGACCUGGGACUCGGACAGCUG [hsa-miR-3661] are 31.7%, -25.2% and 35.2%.
Turning to “UGACCUUUGCCUCUCCCCUCAG [hsa-miR-6759-3p]”, the percent viability with MCF10A [1] was 20.7%. Further, the “5+ nucleoli phenotype percent effect” value with MCF10A [2] was -31.2%. Further, the “one-nucleolus phenotype percent effect” value in the data set on MCF10A [3] was 51.3%.
On the same counts, the results for “UGACGCCCCUUCUGAUUCUGCCU [hsa-miR-6786-3p]” are 50.9%, -4.1% and 0.306%.
On the same counts, the results for UGACUAACUCCCACUCUACAG [hsa-miR-6831-3p] are 41.8%, 16.8% and -28.1%.
Turning to UGACUCUGCCUGUAGGCCGGU [hsa-miR-4522], the percent viability in the data set with MCF10A [1] amounted to 16.2%. The “5+ nucleoli phenotype percent effect” value in the data set with MCF10A [2] was -19.6%. Moreover, the “one-nucleolus phenotype percent effect” value in the data set with MCF10A [3] is 23.6%.
In the case of UGACUGAGCUUCUCCCCACAG [hsa-miR-6857-3p], the percent viability with MCF10A [1] is 34.9%. Further, the “5+ nucleoli phenotype percent effect” value in the data set on MCF10A [2] was -17.1%. The “one-nucleolus phenotype percent effect” value in the data set on MCF10A [3] came out at 32.8%.
On to UGACUGCCUCACUGACCACUU [hsa-miR-5002-3p], for which the percent viability with MCF10A [1] was found to be 50.5%. In addition, the “5+ nucleoli phenotype percent effect” value with MCF10A [2] is -20.8%. In addition, the “one-nucleolus phenotype percent effect” value in the data set with MCF10A [3] is -1.84%.
The like results for UGACUUCUACCUCUUCCAAAG [hsa-miR-6505-3p] were, in that order, 33.6%, -48% and 46.6%.
On the same counts, the results for UGAGAACCACGUCUGCUCUGAG [hsa-miR-589-5p] are 88.9%, -4.96% and -14.3%.
On the same counts, the results for “UGAGAACUGAAUUCCAUAGGCU [hsa-miR-146b-5p]” are 52.1%, -25.8% and 0.774%.
On to “UGAGAACUGAAUUCCAUGGGUU [hsa-miR-146a-5p]”, for which the percent viability in the data set with MCF10A [1] worked out at 51.1%. For the same sequence, in the data set with MCF10A [2], the “5+ nucleoli phenotype percent effect” value is -31.6%. In the data set with MCF10A [3], the “one-nucleolus phenotype percent effect” value was determined as 9.23%.
“UGAGAACUGACAAAUGUGGUAGG [hsa-miR-7153-5p]”: the percent viability with MCF10A [1] turned out to be 61.9%. In addition, the “5+ nucleoli phenotype percent effect” value with MCF10A [2] came out at 14%. Moreover, the “one-nucleolus phenotype percent effect” value in the data set with MCF10A [3] is -18.9%.
The like results for “UGAGAAGGCACAGCUUGCACGUGA [hsa-miR-6770-5p]” were, in that order, 36.9%, -3.61% and 34.3%.
On the same counts, the results for “UGAGACAGGCUUAUGCUGCUAU [hsa-miR-4524a-3p]” are 21.6%, 8.73% and 24.8%.
The like results for “UGAGACCAGGACUGGAUGCACC [hsa-miR-4786-5p]” were, in that order, 42.2%, -0.448% and -5.75%.
Take UGAGACCUCUGGGUUCUGAGCU [hsa-miR-769-5p]: the percent viability with MCF10A [1] worked out at 47.4%. For the same sequence, the “5+ nucleoli phenotype percent effect” value in the data set with MCF10A [2] stood at 9.63%. The “one-nucleolus phenotype percent effect” value with MCF10A [3] turned out to be 7.1%.
The like results for “UGAGAGUGGAAUUCACAGUAUUU [hsa-miR-4693-3p]” were, in that order, 23%, -31.4% and 35.2%.
On the same counts, the results for UGAGAUGAAGCACUGUAGCUC [hsa-miR-143-3p] are 47.9%, -1.77% and -0.991%.
As to UGAGAUGACACUGUAGCU [hsa-miR-4770], the percent viability in the data set on MCF10A [1] worked out at 33.4%. The “5+ nucleoli phenotype percent effect” value with MCF10A [2] is -3.17%. Further, the “one-nucleolus phenotype percent effect” value with MCF10A [3] was 11.7%.
In the case of “UGAGCACCACACAGGCCGGGCGC [hsa-miR-3663-3p]”, the percent viability with MCF10A [1] turned out to be 58.5%. The “5+ nucleoli phenotype percent effect” value with MCF10A [2] came to 12.4%. Also, the “one-nucleolus phenotype percent effect” value in the data set with MCF10A [3] is -6.6%.
The like results for “UGAGCCCCUGUGCCGCCCCCAG [hsa-miR-1225-3p]” were, in that order, 98.1%, 19.9% and -16.7%.
For the sequence UGAGCCCUGUCCUCCCGCAG [hsa-miR-1233-3p], the percent viability in the data set on MCF10A [1] turned out to be 63.8%. Also, the “5+ nucleoli phenotype percent effect” value in the data set on MCF10A [2] was 7.25%. For the same sequence, the “one-nucleolus phenotype percent effect” value with MCF10A [3] is -6.71%.
As to UGAGCCGAGCUGAGCUUAGCUG [hsa-miR-4537], the percent viability in the data set with MCF10A [1] amounted to 73.5%. Moreover, the “5+ nucleoli phenotype percent effect” value in the data set on MCF10A [2] is -4.47%. Moreover, the “one-nucleolus phenotype percent effect” value in the data set on MCF10A [3] is -6.98%.
On the same counts, the results for UGAGCCUCUCCUUCCCUCCAG [hsa-miR-6823-3p] are 31.2%, 12.9% and -2.85%.
The like results for “UGAGCGCCUCGACGACAGAGCCG [hsa-miR-339-3p]” were, in that order, 82.2%, 27% and -25.2%.
On the same counts, the results for UGAGCUAAAUGUGUGCUGGGA [hsa-miR-610] are 131%, 20.7% and -14.8%.
For UGAGCUGCUGUACCAAAAU [hsa-miR-558], the percent viability in the data set with MCF10A [1] is 65.1%. In the data set on MCF10A [2], the “5+ nucleoli phenotype percent effect” value was 0.086%. For the same sequence, in the data set with MCF10A [3], the “one-nucleolus phenotype percent effect” value turned out to be 6.73%.
As to “UGAGGACAGGGCAAAUUCACGA [hsa-miR-5004-5p]”, the percent viability in the data set with MCF10A [1] came out at 36%. Further, the “5+ nucleoli phenotype percent effect” value with MCF10A [2] was -12.8%. Besides, the “one-nucleolus phenotype percent effect” value with MCF10A [3] turned out to be 10%.
The like results for “UGAGGAGAUCGUCGAGGUUGG [hsa-miR-3150b-3p]” were, in that order, 47.3%, 24.3% and -11.7%.
The like results for UGAGGAGAUGCUGGGACUGA [hsa-miR-4784] were, in that order, 56.7%, 22.8% and -9%.
As for “UGAGGAUAUGGCAGGGAAGGGGA [hsa-miR-3679-5p]”, the percent viability in the data set with MCF10A [1] came out at 100%. Moreover, the “5+ nucleoli phenotype percent effect” value in the data set with MCF10A [2] was 29.7%. Moreover, the “one-nucleolus phenotype percent effect” value in the data set with MCF10A [3] was -24.2%.
Take “UGAGGAUGGAUAGCAAGGAAGCC [hsa-miR-3605-5p]”: the percent viability in the data set on MCF10A [1] amounted to 69.7%. Moreover, in the data set with MCF10A [2], the “5+ nucleoli phenotype percent effect” value came to 12%. Further, the “one-nucleolus phenotype percent effect” value in the data set on MCF10A [3] is -3.45%.
Consider UGAGGCAGUAGAUUGAAU [hsa-miR-1827], for which, in the data set with MCF10A [1], the percent viability amounted to 16.7%. In addition, in the data set on MCF10A [2], the “5+ nucleoli phenotype percent effect” value was -33.8%. Moreover, the “one-nucleolus phenotype percent effect” value in the data set on MCF10A [3] amounted to 60.2%.
As for “UGAGGCCCUUGGGGCACAGUGG [hsa-miR-5008-5p]”, the percent viability with MCF10A [1] was 22.9%. The “5+ nucleoli phenotype percent effect” value in the data set on MCF10A [2] is -8.69%. Besides, the “one-nucleolus phenotype percent effect” value in the data set with MCF10A [3] came to 6.37%.
With UGAGGCGGGGGGGCGAGC [hsa-miR-6087], the percent viability in the data set on MCF10A [1] worked out at 53.3%. The “5+ nucleoli phenotype percent effect” value in the data set with MCF10A [2] is -13.4%. Besides, the “one-nucleolus phenotype percent effect” value with MCF10A [3] is 15.3%.
With UGAGGCUAAUGCACUACUUCAC [hsa-miR-3975], in the data set on MCF10A [1], the percent viability amounted to 15.5%. The “5+ nucleoli phenotype percent effect” value in the data set with MCF10A [2] was -22.7%. Further, the “one-nucleolus phenotype percent effect” value with MCF10A [3] is 38.9%.
For “UGAGGCUCUGUUAGCCUUGGCUC [hsa-miR-2467-5p]”, in the data set on MCF10A [1], the percent viability came to 29.8%. The “5+ nucleoli phenotype percent effect” value with MCF10A [2] was -10.9%. Moreover, the “one-nucleolus phenotype percent effect” value in the data set with MCF10A [3] was found to be 37.5%.
The like results for “UGAGGGACAGAUGCCAGAAGCA [hsa-miR-3126-5p]” were, in that order, 16.2%, -33.3% and 40%.
The like results for UGAGGGACCCAGGACAGGAGA [hsa-miR-6875-5p] were, in that order, 29%, -0.911% and 13.7%.
Regarding UGAGGGAGGAGACUGCA [hsa-miR-4419a], the percent viability with MCF10A [1] worked out at 7.9%. Also, the “5+ nucleoli phenotype percent effect” value in the data set with MCF10A [2] is -18.8%. In the data set on MCF10A [3], the “one-nucleolus phenotype percent effect” value stood at 18.6%.
On the same counts, the results for UGAGGGAGGAGGUUGGGUA [hsa-miR-6133] are 17.2%, -0.793% and 1.81%.
Take UGAGGGAGUAGGAUGUAUGGUU [hsa-miR-4510]: the percent viability in the data set on MCF10A [1] was 16.6%. For the same sequence, the “5+ nucleoli phenotype percent effect” value with MCF10A [2] was -17.6%. Also, the “one-nucleolus phenotype percent effect” value with MCF10A [3] is 13.3%.
On the same counts, the results for UGAGGGAGUGGAUUGUAUG [hsa-miR-6130] are 16.7%, -15.2% and -1.2%.
On the same counts, the results for UGAGGGAGUGGGUGGGAGG [hsa-miR-6127] are 39.8%, -15.1% and 3.31%.
The like results for UGAGGGAGUUGGGUGUAUA [hsa-miR-6129] were, in that order, 24.3%, -7.69% and 18.8%.
Take UGAGGGCUCCAGGUGACGGUGG [hsa-miR-4721]: in the data set on MCF10A [1], the percent viability amounted to 22%. In addition, in the data set with MCF10A [2], the “5+ nucleoli phenotype percent effect” value was -20.6%. Moreover, the “one-nucleolus phenotype percent effect” value in the data set with MCF10A [3] amounted to 27.2%.
On the same counts, the results for “UGAGGGGCAGAGAGCGAGACUUU [hsa-miR-423-5p]” are 41.6%, -10.7% and 13.3%.
